Assay results reported in patent US5668109A, “Peptides for inhibiting pepsin release” (Societe de Conseils de Recherches et D'Applications …, priority 1994, dated 1997).
Square brackets hold non-standard residues; d marks the D form. Ends that are not written are not given here.

Details: in vivo

In the case of “Pro--Val--Thr--Lys--Pro--Gln-D-Ala--NH2 (PVTKPQ[dA]-NH2; N-terminus assumed; SMILES CC(C)[C@H](NC(=O)[C@@H]1CCCN1)C(=O)N[C@H](C(=O)N[C@@H](CCCCN)C(=O)N1CCC[C@H]1C(=O)N[C@@H](CCC(N)=O)C(=O)N[C@H](C)C(N)=O)[C@@H](C)O) [P^D1]”, the “quantity found in the organism” value is reported as “greater than 10%”.
